Experimental findings from PMC1779432 are described below.

The target in the assay is Soluble HLA-DR4 (DRB1*0401) (human).

“CII(256-276)(F263N, E266D) analog peptide” came in with an IL-4 secretion by pooled splenocytes and lymph node cells of CII-immunized DR4 transgenic mice (chimeric DR4 on the cells) cultured with 100 μg/ml peptide of 48 pg/mL.

As to “CII(256-276)(F263N, E266A) analog peptide”, the IL-4 secretion by pooled splenocytes and lymph node cells of CII-immunized DR4 transgenic mice (chimeric DR4 on the cells) cultured with 100 μg/ml peptide was 66 pg/mL.
